Tests used:
[1] = target: gp120 of HIV-1NL4-3 (on virus particles) (HIV-1 (NL4-3)); assay: cell-based or functional assay
[2] = target: T1, purified HIV-1 gp120 (gp120-IIIB, Immuno Dx) (HIV-1 (IIIB), UniProt P04578 33-511); assay: SPR (Biacore T200), gp120 amine-coupled to CM5 chip, MoMo30 flowed over; 1:1 model fit; three independent measurements in triplicate
T1 construct: domain: gp120; also called HIV gp120; purified gp120

B1: MoMo30 protein from Momordica balsamina (purified from leaf extract, 30 kDa cutoff retentate) (other)
chain: GGIATYWGQDTREGRLTAACATGKFQIINIGFLSTFGNGRPPQVNLTRHCSPISNGCRNVSVGVLNCRNDGVKVMLSIGGPHGSYSLSSAAEAIDLADYIWNNFLGGRSTSLRPFGDVPLDGVDFRIERGQFSHYYTMVARRLHDYGRQCSRKVYLTAAPGCRFPDKYLTELLHTGLFDYVWVRFFDDRQCQYNSVNPSGFWWSWMRWINSIPARKFYVGIPASEEAGDGYVAPEVLIKEVLPFTKKFTNYGGVMLFDLSNDVQTNYSSIISNRV
notes: also called 30 kDa MoMo protein; hevamine A-related MoMo30 protein
Q: How did the “IC50 of inhibition of HIV-1NL4-3 infectivity, MAGI cell assay” value [1] turn out when B1 was run?
A: Its value is 0.0028 µM.

Q: And the Kd [2]?
A: The Kd was 6 µM.

Q: And the koff [2]?
A: The koff was 0.00242 s⁻¹.

Q: And the kon [2]?
A: The kon was 400 M⁻¹ s⁻¹.
